From patent publication US20090029390A1 (KOREA INSTITUTE OF SCIENCE AND TECHNOLOGY, published 2009)
Ends that are not written are not given here. * marks the point of attachment. FITC = O=C1OC2(c3ccc(O)cc3Oc3cc(O)ccc32)c2ccc(NC(=S)*)cc21; Ahx = NCCCCCC(=O)O

Legend:
[1] = molecular target: T1, GST-CBP (truncated human CBP, amino acids 1-450) (human, UniProt Q92793 1-450); assay: fluorescence polarization, 100 nM labeled peptide titrated with GST-CBP
T1 construct: Expressed in E. coli BL21 from pGEX-KG and eluted as a GST fusion; GST was not removed; not shown: glutathione S-transferase (GST) tag encoded by the pGEX-KG vector
T1 sequence (Q92793 1-450): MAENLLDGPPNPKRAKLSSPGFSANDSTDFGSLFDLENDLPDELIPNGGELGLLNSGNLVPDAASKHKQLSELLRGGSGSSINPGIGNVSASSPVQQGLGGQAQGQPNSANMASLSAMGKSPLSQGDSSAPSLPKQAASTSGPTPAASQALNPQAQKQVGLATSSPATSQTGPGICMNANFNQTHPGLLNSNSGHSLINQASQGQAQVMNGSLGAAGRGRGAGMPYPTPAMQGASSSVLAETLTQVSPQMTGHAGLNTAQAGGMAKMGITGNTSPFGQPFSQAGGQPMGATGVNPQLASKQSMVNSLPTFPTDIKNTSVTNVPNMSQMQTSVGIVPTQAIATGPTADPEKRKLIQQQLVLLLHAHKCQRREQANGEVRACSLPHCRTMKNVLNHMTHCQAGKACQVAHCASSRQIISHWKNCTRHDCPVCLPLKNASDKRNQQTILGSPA
Procedure: (§1) The binding affinity and features between the HIF-1α peptides and CBP or p300 proteins were analyzed by measuring the fluorescence polarization (FP) values that were changed by the formation of a protein-ligand complex through the interaction between the CBP or p300 proteins and the synthesized peptides that were manufactured by the method as described in above Example 1. The FP values were measured with a fluorescence spectrometer (Perkin-Elmer), which was set to have a slit width of 5 nm and a total integration time of 5 seconds. EBC Buffer (50 mM Tris and 120 mM NaCl; pH 8.0, 0.25% Nonidet P (NP)-40) was used for the binding reaction.
(§2) To compare interactions between the four peptides derived from different regions in HIF-1α C-TAD with CBP or p300, these fluorescein-labeled HIF-1α peptides were mixed with CBP proteins at varying concentrations from 0 to 3000 nM under the conditions of above Example 2-2, and then the FP (fluorescence polarization) values were measured (FIG. 2A).

[2] = molecular target: T2, GST-p300 (truncated p300, amino acids 1-221) (Homo sapiens (Human), UniProt Q09472 300-520); assay: fluorescence polarization, labeled peptide titrated with GST-p300
T2 construct: Expressed in E. coli BL21 from pGEX-4T-1 and eluted as a GST fusion; GST was not removed; not shown: glutathione S-transferase (GST) tag encoded by the pGEX-4T-1 vector
T2 sequence (Q09472 300-520): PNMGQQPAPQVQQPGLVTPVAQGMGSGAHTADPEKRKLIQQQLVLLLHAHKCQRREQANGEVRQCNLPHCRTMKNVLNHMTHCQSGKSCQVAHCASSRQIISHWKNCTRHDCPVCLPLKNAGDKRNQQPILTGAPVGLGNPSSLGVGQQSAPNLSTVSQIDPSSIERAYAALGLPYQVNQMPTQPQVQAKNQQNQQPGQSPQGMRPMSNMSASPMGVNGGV

[3] = molecular target: T1, GST-CBP (truncated human CBP, amino …); assay: fluorescence polarization, labeled peptide titrated with GST-CBP 0-3000 nM
Procedure: as §1, §2

[4] = molecular target: T2, GST-p300 (truncated p300, amino acids …); assay: fluorescence polarization competition against F-HIF-1α(786-826) for GST-p300

{FITC-Ahx}-SDLACRLLGQSMDESGLPQLTSYDCEVNAPIQGSRNLLQ (cysteine pairing not given here, Synthetic fluorescein-labeled peptide) [F-HIF-1α (776-814, SEQ ID NO: 5)]: no binding (tested: 3000 nM) [1]; no binding [2].

{FITC-Ahx}-DESGLPQLTSYDCEVNAPIQGSRNLLQGEELLRAL (Synthetic fluorescein-labeled peptide) [F-HIF-1α (788-822, SEQ ID NO: 6)]: binds [3]; binds [2].

B1: F-HIF-1α (786-826)[C800A] (peptide)
peptide: {FITC-Ahx}-SMDESGLPQLTSYDAEVNAPIQGSRNLLQGEELLRALDQVN
notes: Position 800 counts on full-length HIF-1α
B1: binds [2].

B2: N803A HIF-1α (786-826) peptide (peptide)
peptide: SMDESGLPQLTSYDCEVAAPIQGSRNLLQGEELLRALDQVN
notes: Unlabeled recombinant peptide with GST removed by thrombin; Position counts on full-length HIF-1α; also called N803A mutant peptide
B2: binds [4].

B3: T796D HIF-1α (786-826) peptide (peptide)
peptide: SMDESGLPQLDSYDCEVNAPIQGSRNLLQGEELLRALDQVN
notes: Unlabeled recombinant peptide with GST removed by thrombin; Position counts on full-length HIF-1α; also called T796D mutant peptide
B3: binds [4].

B4: F-HIF-1α (776-826, SEQ ID NO: 3) (peptide)
peptide: {FITC-Ahx}-SDLACRLLGQSMDESGLPQLTSYDCEVNAPIQGSRNLLQGEELLRALDQVN
modifications: cysteine pairing not given here
notes: Synthetic fluorescein-labeled peptide from the C-TAD of human HIF-1α
In the case of B4, the Kd [3] is reported as 196 nM and the Kd [2] is reported as 157 nM.

B5: F-HIF-1α (786-826, SEQ ID NO: 4) (peptide)
peptide: {FITC-Ahx}-SMDESGLPQLTSYDCEVNAPIQGSRNLLQGEELLRALDQVN
notes: Synthetic fluorescein-labeled peptide; also called untreated peptide
In the case of B5, the Kd [3] is reported as 175 nM and the Kd [2] is reported as 180 nM.
